The record followed here is US20200231691A1 (Hoffmann-La Roche, published 2020).

For assay [1], the target named is T1, murine EpCAM (murine, UniProt Q99JW5 24-315).
T1 construct: Stably expressed on CT26muEpCAM cl25 cells; also called muEpCAM; CT26muEpCAM cells
T1 sequence: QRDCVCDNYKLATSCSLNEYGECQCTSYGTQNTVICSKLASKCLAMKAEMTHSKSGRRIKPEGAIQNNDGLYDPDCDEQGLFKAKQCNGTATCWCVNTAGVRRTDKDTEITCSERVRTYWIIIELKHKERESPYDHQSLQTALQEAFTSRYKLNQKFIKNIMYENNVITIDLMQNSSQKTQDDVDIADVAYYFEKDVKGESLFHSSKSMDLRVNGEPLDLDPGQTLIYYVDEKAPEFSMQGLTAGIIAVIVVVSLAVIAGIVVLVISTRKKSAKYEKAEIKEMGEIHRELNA
The experiment in a line: flow cytometry, muEpCAM+ CT26muEpCAM cells. On the procedure: (§1) The binding to cell surface murine EpCAM was analysed using mouse EpCAM-positive CT26muEpCAM c125 cells, which stably expresses murine EpCAM. The specificity of binding was analysed by determination of binding to muEpCAM-negative cell line CT26muFAP, which stably expresses murine FAP.
(§2) For analysis of binding of the antigen binding molecules, 0.5×10⁵ CT26muEpCAM or 0.5×10⁵ CT26muFAP cells were added to wells of round-bottomed suspension cell 96-well plates (greiner bio-one, cellstar, Cat. No. 650185). For discrimination of live and dead cells, samples were stained with Zombie Aqua Viability Dye (Biolegend, Cat. No 423102) in PBS for 10 minutes at room temperature. Cells were then washed once with FACS buffer and subsequently stained for 90 minutes at 4° C. in the dark in 50 μL/well 4° C.
(§3) Plates were finally resuspended in 85 μL/well FACS-buffer and acquired the same day using 4-laser LSR-II cytometer (BD Bioscience with DIVA software).

The target in assay [2] is T2, murine FAP (murine, UniProt P97321 1-761).
T2 construct: whole, on cells; CT26muFAP served as the muEpCAM-negative specificity control cell line; also called muFAP; CT26muFAP cells
T2 sequence (looked up): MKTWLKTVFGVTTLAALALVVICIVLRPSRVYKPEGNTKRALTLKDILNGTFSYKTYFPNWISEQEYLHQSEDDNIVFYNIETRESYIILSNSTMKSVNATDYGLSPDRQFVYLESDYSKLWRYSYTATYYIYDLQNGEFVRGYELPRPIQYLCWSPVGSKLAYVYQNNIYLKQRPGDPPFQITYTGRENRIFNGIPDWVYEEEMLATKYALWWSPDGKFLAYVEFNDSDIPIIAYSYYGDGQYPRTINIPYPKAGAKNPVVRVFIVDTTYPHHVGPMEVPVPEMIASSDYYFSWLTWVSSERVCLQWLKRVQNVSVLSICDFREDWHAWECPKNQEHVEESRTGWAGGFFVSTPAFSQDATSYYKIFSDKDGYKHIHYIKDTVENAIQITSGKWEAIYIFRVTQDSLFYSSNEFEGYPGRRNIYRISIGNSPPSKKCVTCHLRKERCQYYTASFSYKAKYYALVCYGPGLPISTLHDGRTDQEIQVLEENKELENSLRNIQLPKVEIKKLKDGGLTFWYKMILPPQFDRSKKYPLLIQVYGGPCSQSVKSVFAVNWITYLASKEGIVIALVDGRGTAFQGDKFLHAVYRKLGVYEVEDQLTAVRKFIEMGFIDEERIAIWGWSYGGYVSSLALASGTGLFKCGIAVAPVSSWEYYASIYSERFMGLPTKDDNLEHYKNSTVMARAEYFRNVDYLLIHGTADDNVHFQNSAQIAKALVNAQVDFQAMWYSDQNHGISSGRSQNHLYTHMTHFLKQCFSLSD
In words: flow cytometry on CT26muFAP cells, which stably express murine FAP. On the procedure: as §1, §2, §3

Assay [3] addresses T3, biotinylated monomeric human OX40 antigen Fc(kih) fusion molecule (human, UniProt P0DOX5 223-449 = IgG part, biotinylated at the C-terminal Avi tag (BirA)).
T3 construct: also called biotinylated human OX40; hu OX40
The experiment in a line: ELISA, biotinylated human OX40 on neutravidin plates, Fab supernatants, anti-Flag/HRP. On the procedure:
Selections were carried out over 3 or 4 rounds using constant antigen concentrations of 100 nM. […] In rounds 2 and 4, in order to avoid enrichment of binders to neutravidin, capture of antigen: phage complexes was performed by addition of 5.4×10⁷ streptavidin-coated magnetic beads. […] Fab-containing bacterial supernatants were added and binding Fabs were detected via their Flag-tags using an anti-Flag/HRP secondary antibody. […] They were bacterially expressed in a 0.5 liter culture volume, affinity purified and further characterized by SPR-analysis using BioRad's ProteOn XPR36 biosensor.

The target in assay [4] is T4, human EpCAM (human, UniProt P16422 24-314).
T4 construct: Endogenous on KATO-III cells and stably expressed on NIH/3T3huEpCAM clone 44 cells; also called huEpCAM; KATO-III cells
T4 sequence: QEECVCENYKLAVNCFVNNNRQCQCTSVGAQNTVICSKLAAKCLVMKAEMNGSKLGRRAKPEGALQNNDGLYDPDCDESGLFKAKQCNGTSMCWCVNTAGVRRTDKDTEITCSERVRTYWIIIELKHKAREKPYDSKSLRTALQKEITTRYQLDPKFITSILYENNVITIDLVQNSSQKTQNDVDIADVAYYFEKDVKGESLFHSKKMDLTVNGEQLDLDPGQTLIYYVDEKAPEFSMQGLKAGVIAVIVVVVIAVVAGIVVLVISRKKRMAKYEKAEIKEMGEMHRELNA
The experiment in a line: flow cytometry, huEpCAM+ KATO-III cells. On the procedure: For discrimination of live and dead cells, samples were stained with Zombie Aqua Viability Dye (Biolegend, Cat. No 423102) in PBS for 10 minutes at room temperature. Cells were then washed once with FACS buffer and subsequently stained for 90 minutes at 4° C. in the dark in 50 μL/well 4° C.

Assay [5] deals with T5, human OX40 (human, UniProt P43489 29-277).
T5 construct: Recombinant on HeLa reporter cells in the NFkB assay; also called huOX40; CD134
T5 sequence: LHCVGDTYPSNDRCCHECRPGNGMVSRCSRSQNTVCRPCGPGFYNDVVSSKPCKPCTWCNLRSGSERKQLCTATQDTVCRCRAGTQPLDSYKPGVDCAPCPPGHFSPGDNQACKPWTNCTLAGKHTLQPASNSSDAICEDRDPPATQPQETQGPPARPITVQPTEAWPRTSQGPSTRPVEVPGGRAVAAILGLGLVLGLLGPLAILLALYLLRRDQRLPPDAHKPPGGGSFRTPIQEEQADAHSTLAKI
In words: flow cytometry, activated human OX40+ CD4+ T cells. How it is done: (§4) For discrimination of live and dead cells, samples were stained with Zombie Aqua Viability Dye (Biolegend, Cat. No. 423102) in DPBS for 10 minutes at room temperature. […] After three washes with excess FACS buffer, cells were stained for 30 minutes at 4° C. in the dark in 25 μL/well 4° C. FACS buffer containing a mixture of fluorescently labeled anti-human CD4 (clone RPA-T4, mouse IgG1 k, BioLegend, Cat. No. 300532), anti-human CD8 (clone RPa-T8, mouse IgG1k, BioLegend, Cat.-No. 3010441) and Fluorescein isothiocyanate (FITC)-conjugated AffiniPure anti-human IgG Fcγ-fragment-specific goat IgG F(ab′)2 fragment (Jackson ImmunoResearch, Cat. No. 109 096 098).

Assay [6] addresses T5, human OX40. The experiment in a line: flow cytometry, activated human OX40+ CD8+ T cells. On the procedure:
as §4

B1: monospecific, bivalent anti-murine EpCAM IgG (parental bivalent anti-muEpCAM antibody) (antibody, V domains shown)
VH: EVQLAESGGGLVQPGRSMKLSCAASGFTFSNFPMAWVRQAPTKGLEWVATISTSGGSTYYRDSVKGRFTISRDNAKSTLYLQMNSLRSEDTATYYCTRTLYILRVFYFDYWGQGVMVTVSS
VL: DIQMTQSPASLSASLGETVSIECLASEGISNDLAWYQQKSGKSPQLLIYATSRLQDGVPSRFSGSGSGTRYSLKISGMQPEDEADYFCQQSYKYPWTFGGGTKLELK
notes: it was detected with anti-mouse IgG Fc; also called muEpCAM IgG; G8.8
B1 returned an EC50 in assay [1] of 2.87 nM. Also, in assay [2], the binding result is on record as “no binding”.

B2: anti-OX40 clone 17A9 (phage-derived Fab) (Fab, V domains shown)
VH: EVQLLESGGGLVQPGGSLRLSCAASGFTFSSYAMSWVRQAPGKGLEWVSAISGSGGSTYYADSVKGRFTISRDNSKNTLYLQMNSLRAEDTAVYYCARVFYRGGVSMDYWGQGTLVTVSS
VL: SSELTQDPAVSVALGQTVRITCQGDSLRSYYASWYQQKPGQAPVLVIYGKNNRPSGIPDRFSGSSSGNTASLTITGAQAEDEADYYCNSRVMPHNRVFGGGTKLTV
notes: Tested as a Flag-tagged Fab in bacterial supernatant (lambda-DP47 library); also called OX40 (17A9)
As to B2, the binding result in assay [3] is reported as “binds”.

B3: monospecific, bivalent anti-human EpCAM IgG (parental bivalent anti-human EpCAM antibody, clone 3-17I, Affitech) (antibody, V domains shown)
VH: QVQLVQSGAEVKKPGSSVKVSCKASGGTFSSYAISWVRQAPGQGLEWMGGIIPIFGTANYAQKFQGRVTITADESTSTAYMELSSLRSEDTAVYYCARGLLWNYWGQGTLVTVSS
VL: EIVMTQSPATLSVSPGERATLSCRASQSVSSNLAWYQQKPGQAPRLIIYGASTTASGIPARFSASGSGTDFTLTISSLQSEDFAVYYCQQYNNWPPAYTFGQGTKLEIK
notes: IgG; it was detected with an anti-human IgG secondary; also called huEpCAM IgG; 3-171
B3 had an EC50 in assay [4] of 3.11 nM.

B4: bispecific, tetravalent anti-human OX40, bivalent anti-human EpCAM 4+2 molecule (OX40 49B4/EpCAM 3-17I P329GLALA 4+2) (bispecific antibody, human IgG1, kappa, L234A L235A)
heavy: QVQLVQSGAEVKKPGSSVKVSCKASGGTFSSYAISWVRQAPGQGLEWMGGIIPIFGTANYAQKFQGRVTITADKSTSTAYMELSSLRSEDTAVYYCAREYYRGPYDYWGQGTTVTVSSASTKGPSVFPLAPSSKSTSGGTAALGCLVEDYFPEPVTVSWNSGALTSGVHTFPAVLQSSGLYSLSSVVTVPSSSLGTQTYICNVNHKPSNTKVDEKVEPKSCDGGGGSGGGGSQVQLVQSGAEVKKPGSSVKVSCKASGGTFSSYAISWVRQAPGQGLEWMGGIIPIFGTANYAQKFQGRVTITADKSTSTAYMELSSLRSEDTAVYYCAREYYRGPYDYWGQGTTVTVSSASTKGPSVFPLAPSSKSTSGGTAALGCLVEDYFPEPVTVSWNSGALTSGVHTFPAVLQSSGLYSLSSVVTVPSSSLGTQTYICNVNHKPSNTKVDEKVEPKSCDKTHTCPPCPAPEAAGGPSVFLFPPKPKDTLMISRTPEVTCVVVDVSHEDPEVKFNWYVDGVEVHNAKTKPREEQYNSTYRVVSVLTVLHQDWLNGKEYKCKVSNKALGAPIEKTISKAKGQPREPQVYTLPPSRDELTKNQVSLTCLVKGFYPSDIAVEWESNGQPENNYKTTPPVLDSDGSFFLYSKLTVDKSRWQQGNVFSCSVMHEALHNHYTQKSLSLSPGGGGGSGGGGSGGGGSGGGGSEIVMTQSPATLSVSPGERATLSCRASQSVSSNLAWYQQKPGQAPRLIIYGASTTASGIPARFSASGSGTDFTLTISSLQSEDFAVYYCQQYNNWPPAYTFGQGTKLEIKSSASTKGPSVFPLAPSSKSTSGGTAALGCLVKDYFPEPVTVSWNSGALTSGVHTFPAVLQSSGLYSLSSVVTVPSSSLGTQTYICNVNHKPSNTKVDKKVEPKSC
light 1: DIQMTQSPSTLSASVGDRVTITCRASQSISSWLAWYQQKPGKAPKLLIYDASSLESGVPSRFSGSGSGTEFTLTISSLQPDDFATYYCQQYSSQPYTFGQGTKVEIKRTVAAPSVFIFPPSDRKLKSGTASVVCLLNNFYPREAKVQWKVDNALQSGNSQESVTEQDSKDSTYSLSSTLTLSKADYEKHKVYACEVTHQGLSSPVTKSFNRGEC
light 2: QVQLVQSGAEVKKPGSSVKVSCKASGGTFSSYAISWVRQAPGQGLEWMGGIIPIFGTANYAQKFQGRVTITADESTSTAYMELSSLRSEDTAVYYCARGLLWNYWGQGTLVTVSSASVAAPSVFIFPPSDEQLKSGTASVVCLLNNFYPREAKVQWKVDNALQSGNSQESVTEQDSKDSTYSLSSTLTLSKADYEKHKVYACEVTHQGLSSPVTKSFNRGEC
notes: huIgG1 P329G LALA, no knob-into-hole; also called 4+2 huEpCAM; 4 + 2 anti-huOX40, anti-huEpCAM
In the case of B4, the concentration giving a half-maximal response (EC50) in assay [5] was determined as 0.01 nM; in assay [6], 0.04 nM.

B5: anti-OX40 clone 20B7 (phage-derived Fab) (Fab, V domains shown)
VH: QVQLVQSGAEVKKPGSSVKVSCKASGGTFSSYAISWVRQAPGQGLEWMGGIIPIFGTANYAQKFQGRVTITADKSTSTAYMELSSLRSEDTAVYYCARVNYPYSYWGDFDYWGQGTTVTVSS
VL: DIQMTQSPSTLSASVGDRVTITCRASQSISSWLAWYQQKPGKAPKLLIYDASSLESGVPSRFSGSGSGTEFTLTISSLQPDDFATYYCQQYQAFSLTFGQGTKVEIK
notes: Tested as a Flag-tagged Fab in bacterial supernatant (DP88-4 library); also called OX40 (20B7)
Turning to B5, in assay [3], the binding result was “binds”.

B6: anti-OX40 clone 49B4 (phage-derived Fab) (Fab, V domains shown)
VH: QVQLVQSGAEVKKPGSSVKVSCKASGGTFSSYAISWVRQAPGQGLEWMGGIIPIFGTANYAQKFQGRVTITADKSTSTAYMELSSLRSEDTAVYYCAREYYRGPYDYWGQGTTVTVSS
VL: DIQMTQSPSTLSASVGDRVTITCRASQSISSWLAWYQQKPGKAPKLLIYDASSLESGVPSRFSGSGSGTEFTLTISSLQPDDFATYYCQQYSSQPYTFGQGTKVEIK
notes: Tested as a Flag-tagged Fab in bacterial supernatant (DP88-4 library); also called OX40 (49B4)
For B6, in assay [3], the binding result is “binds”.

B7: anti-OX40 clone 1G4 (phage-derived Fab) (Fab, V domains shown)
VH: QVQLVQSGAEVKKPGSSVKVSCKASGGTFSSYAISWVRQAPGQGLEWMGGIIPIFGTANYAQKFQGRVTITADKSTSTAYMELSSLRSEDTAVYYCAREYGSMDYWGQGTTVTVSS
VL: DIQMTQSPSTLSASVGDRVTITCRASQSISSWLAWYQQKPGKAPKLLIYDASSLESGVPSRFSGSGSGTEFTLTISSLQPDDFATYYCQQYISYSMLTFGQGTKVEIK
notes: Tested as a Flag-tagged Fab in bacterial supernatant (DP88-4 library); also called OX40 (1G4)
Take B7: the binding result in assay [3] is reported as “binds”.
